Assay results published in publication PMC6323126, “Architecture, substructures, and dynamic assembly of STRIPAK complexes in Hippo signaling” (Cell Discovery, 2019).

B3: MST4 kinase domain (residues 1–300) (domain or fragment)
chain: not shown
notes: MST4 (STK26), human, residues 1-300; also called N-terminal kinase domain of MST4; source: E. coli BL21 (DE3) CodonPlus, purified
B4: MST2 (recombinant, wildtype) (enzyme, human, UniProt Q13188 1-491, looked up)
chain: MEQPPAPKSKLKKLSEDSLTKQPEEVFDVLEKLGEGSYGSVFKAIHKESGQVVAIKQVPVESDLQEIIKEISIMQQCDSPYVVKYYGSYFKNTDLWIVMEYCGAGSVSDIIRLRNKTLIEDEIATILKSTLKGLEYLHFMRKIHRDIKAGNILLNTEGHAKLADFGVAGQLTDTMAKRNTVIGTPFWMAPEVIQEIGYNCVADIWSLGITSIEMAEGKPPYADIHPMRAIFMIPTNPPPTFRKPELWSDDFTDFVKKCLVKNPEQRATATQLLQHPFIKNAKPVSILRDLITEAMEIKAKRHEEQQRELEEEEENSDEDELDSHTMVKTSVESVGTMRATSTMSEGAQTMIEHNSTMLESDLGTMVINSEDEEEEDGTMKRNATSPQVQRPSFMDYFDKQDFKNKSHENCNQNMHEPFPMSKNVFPDNWKVPQDGDFDFLKNLSLEELQMRLKALDPMMEREIEELRQRYTAKRQPILDAMDAKKRRQQNF
notes: MST2 (STK3), human; also called STK3; Hippo kinase MST2; source: E. coli BL21 (DE3) CodonPlus, purified
B7: SIKE1 second coiled-coil (CC2) region, residues 72–121 (domain or fragment, human, UniProt Q9BRV8 72-121, looked up)
chain: LLSQENTQIRDLQQENRELWISLEEHQDALELIMSKYRKQMLQLMVAKKA
notes: Homotetramer in the apo crystal, homodimer in the crystal with the STRN3 peptide; A Se-Met form was used for phasing; also called SIKE1 CC2; source: E. coli BL21 (DE3) CodonPlus, purified
B12: STRN3 coiled-coil domain (CC, amino acid residues 64–145) (domain or fragment, human, UniProt Q13033 64-145, looked up)
chain: TIPGILHYIQHEWARFEMERAHWEVERAELQARIAFLQGERKGQENLKKDLVRRIKMLEYALKQERAKYHKLKYGTELNQGD
notes: also called STRN3 CC; source: E. coli BL21 (DE3) CodonPlus, purified

How the values were obtained:
[1] = target: B4; test: pull-down; GST pulldown: GST-tagged protein, partner and glutathione Sepharose mixed at 4 °C for 1 h in 20 mM HEPES (pH 7.5), 100 mM NaCl; eluted with 20 mM reduced glutathione; SDS-PAGE, Coomassie staining; conditions: both partners purified
[2] = target: T1, STRIP1 (full-length, His-tagged, insect cells) (UniProt Q5VSL9 1-837); test: pull-down; MBP pulldown: MBP-tagged protein, partner and amylose resin mixed at 4 °C for 1 h in 20 mM HEPES (pH 7.5), 100 mM NaCl; eluted with 20 mM maltose; SDS-PAGE, Coomassie staining; conditions: both partners purified
T1 construct: STRIP1, full length; His tag is TEV-cleavable; also called His-STRIP1; FAM40A; source: High Five insect cells (baculovirus), purified

[3] = target: T1, STRIP1 (full-length, His-tagged, insect …); test: pull-down; pulldown with purified recombinant proteins shown in supplementary figures; whether GST or MBP and who carried the tag not told; conditions: both partners purified
[4] = target: T1, STRIP1 (full-length, His-tagged, insect …); test: pull-down; GST pulldown: GST-tagged protein, partner and glutathione Sepharose mixed at 4 °C for 1 h in 20 mM HEPES (pH 7.5), 100 mM NaCl; eluted with 20 mM reduced glutathione; SDS-PAGE, Coomassie staining; conditions: both partners purified
[5] = target: T1, STRIP1 (full-length, His-tagged, insect …); test: pull-down; pulldown with the kinase dephosphorylated with λPPase and then autophosphorylated with ATP (and magnesium ion); conditions: both partners purified
[6] = target: B7; test: ITC; iTC200, 25 °C, 20 mM HEPES (pH 7.5), 100 mM NaCl; conditions: both partners purified
[7] = target: B7; test: crystal structure; SIKE1 CC2 mixed with STRN3 peptide (166–190) at 1:1.2 molar ratio, 1.75 Å; 35% MPD, 0.1 M imidazole (pH 7.5), 16 °C; conditions: both partners purified
[8] = target: the molecule itself; test: crystal structure; SIKE1 CC1-SLMAP CC1 complex reconstituted 1:1 and gel-filtered, 2.3 Å; 0.1 M sodium citrate (pH 5.5), 15% PEG 6000, 16 °C
[9] = target: the molecule itself; test: crystal structure; apo SIKE1 CC2, 1.5 Å; 0.1 M Tris (pH 8.5), 0.7 M ammonium tartrate dibasic, 16 °C
[10] = target: the molecule itself; test: crystal structure; SIKE1 CC2 mixed with STRN3 peptide (166–190) at 1:1.2 molar ratio, 1.75 Å; 35% MPD, 0.1 M imidazole (pH 7.5), 16 °C
[11] = target: B12; test: ITC; iTC200, 25 °C, 20 mM HEPES (pH 7.5), 100 mM NaCl; conditions: both partners purified
[12] = target: T2, FHA domain (residues 5–135) of SLMAP (human, UniProt Q14BN4 5-135); test: pull-down; GST pulldown: GST-tagged protein, partner and glutathione Sepharose mixed at 4 °C for 1 h in 20 mM HEPES (pH 7.5), 100 mM NaCl; eluted with 20 mM reduced glutathione; SDS-PAGE, Coomassie staining; conditions: both partners purified
T2 construct: also called SLMAP (FHA); SLMAP FHA domain; source: E. coli BL21 (DE3) CodonPlus, purified
T2 sequence (looked up): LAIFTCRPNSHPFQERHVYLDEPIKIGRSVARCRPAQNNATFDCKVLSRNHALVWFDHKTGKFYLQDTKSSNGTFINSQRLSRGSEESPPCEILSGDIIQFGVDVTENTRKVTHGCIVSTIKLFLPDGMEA

[13] = target: T3, C-terminal domain (residues 421–837) of STRIP1, recombinant (UniProt Q5VSL9 421-837); test: pull-down; pulldown with purified recombinant proteins shown in supplementary figures; whether GST or MBP and who carried the tag not told; conditions: both partners purified
T3 sequence (looked up): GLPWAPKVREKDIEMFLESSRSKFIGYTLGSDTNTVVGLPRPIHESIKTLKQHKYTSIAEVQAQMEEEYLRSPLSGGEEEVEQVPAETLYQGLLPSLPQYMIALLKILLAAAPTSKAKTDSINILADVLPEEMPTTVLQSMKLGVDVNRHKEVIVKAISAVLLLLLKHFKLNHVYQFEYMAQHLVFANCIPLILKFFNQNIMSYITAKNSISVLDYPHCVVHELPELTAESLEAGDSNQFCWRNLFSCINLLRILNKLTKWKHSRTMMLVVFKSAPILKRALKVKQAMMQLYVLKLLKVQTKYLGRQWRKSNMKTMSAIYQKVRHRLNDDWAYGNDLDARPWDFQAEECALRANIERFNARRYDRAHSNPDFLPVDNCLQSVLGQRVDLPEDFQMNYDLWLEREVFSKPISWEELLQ

[14] = target: B3; test: as above; conditions: both partners purified

B1: STRN3 fragment (residues 64–341), tag not told (domain or fragment, human, UniProt Q13033 64-341, looked up)
chain: TIPGILHYIQHEWARFEMERAHWEVERAELQARIAFLQGERKGQENLKKDLVRRIKMLEYALKQERAKYHKLKYGTELNQGDLKMPTFESEETKDTEAPTAPQNSQLTWKQGRQLLRQYLQEVGYTDTILDVRSQRVRSLLGLSNSEPNGSVETKNLEQILNGGESPKQKGQEIKRSSGDVLETFNFLENADDSDEDEENDMIEGIPEGKDKHRMNKHKIGNEGLAADLTDDPDTEEALKEFDFLVTAEDGEGAGEARSSGDGTEWDKDDLSPTAEVW
notes: source: E. coli BL21 (DE3) CodonPlus, purified
binding result [1]: binds

B2: MBP-tagged STRN3 fragment (residues 64–341) (domain or fragment, human, UniProt Q13033 64-341, looked up)
chain: TIPGILHYIQHEWARFEMERAHWEVERAELQARIAFLQGERKGQENLKKDLVRRIKMLEYALKQERAKYHKLKYGTELNQGDLKMPTFESEETKDTEAPTAPQNSQLTWKQGRQLLRQYLQEVGYTDTILDVRSQRVRSLLGLSNSEPNGSVETKNLEQILNGGESPKQKGQEIKRSSGDVLETFNFLENADDSDEDEENDMIEGIPEGKDKHRMNKHKIGNEGLAADLTDDPDTEEALKEFDFLVTAEDGEGAGEARSSGDGTEWDKDDLSPTAEVW
notes: source: E. coli BL21 (DE3) CodonPlus, purified; not shown: MBP, N-terminal, kept
binding result [2]: binds

B3
binding result [3]: binds

B4
binding result [4]: binds

B5: GST-tagged MST2 (enzyme, human, UniProt Q13188 1-491, looked up)
chain: MEQPPAPKSKLKKLSEDSLTKQPEEVFDVLEKLGEGSYGSVFKAIHKESGQVVAIKQVPVESDLQEIIKEISIMQQCDSPYVVKYYGSYFKNTDLWIVMEYCGAGSVSDIIRLRNKTLIEDEIATILKSTLKGLEYLHFMRKIHRDIKAGNILLNTEGHAKLADFGVAGQLTDTMAKRNTVIGTPFWMAPEVIQEIGYNCVADIWSLGITSIEMAEGKPPYADIHPMRAIFMIPTNPPPTFRKPELWSDDFTDFVKKCLVKNPEQRATATQLLQHPFIKNAKPVSILRDLITEAMEIKAKRHEEQQRELEEEEENSDEDELDSHTMVKTSVESVGTMRATSTMSEGAQTMIEHNSTMLESDLGTMVINSEDEEEEDGTMKRNATSPQVQRPSFMDYFDKQDFKNKSHENCNQNMHEPFPMSKNVFPDNWKVPQDGDFDFLKNLSLEELQMRLKALDPMMEREIEELRQRYTAKRQPILDAMDAKKRRQQNF
notes: MST2 (STK3), human; also called MST2/pMST2; source: E. coli BL21 (DE3) CodonPlus, purified; not shown: GST, N-terminal, kept
binding result [5]: binds

QNSQLTWKQGRQLLRQYLQEVGYTD (peptide, UniProt Q13033 166-190, looked up) [STRN3 peptide (residues 166–190)]
Kd [6]: 2900 nM
stoichiometry N [7]: 2 SIKE1 CC2 per STRN3 peptide

B6: SIKE1 CC1 (residues 5–65) (domain or fragment, human, UniProt Q9BRV8 5-65, looked up)
chain: IEKILTDAKTLLERLREHDAAAESLVDQSAALHRRVAAMREAGTALPDQYQEDASDMKDMS
notes: SIKE1, human, residues 5-65; Homodimer within the 2:2 crystal complex; also called residues 5–65 of SIKE1; source: E. coli BL21 (DE3) CodonPlus, purified
stoichiometry N [8]: 2

B7
stoichiometry N [9]: 4
stoichiometry N [10]: 2

B8: MST2 kinase domain (residues 1–308) (domain or fragment, human, UniProt Q13188 1-308, looked up)
chain: MEQPPAPKSKLKKLSEDSLTKQPEEVFDVLEKLGEGSYGSVFKAIHKESGQVVAIKQVPVESDLQEIIKEISIMQQCDSPYVVKYYGSYFKNTDLWIVMEYCGAGSVSDIIRLRNKTLIEDEIATILKSTLKGLEYLHFMRKIHRDIKAGNILLNTEGHAKLADFGVAGQLTDTMAKRNTVIGTPFWMAPEVIQEIGYNCVADIWSLGITSIEMAEGKPPYADIHPMRAIFMIPTNPPPTFRKPELWSDDFTDFVKKCLVKNPEQRATATQLLQHPFIKNAKPVSILRDLITEAMEIKAKRHEEQQRE
notes: also called kinase domain of MST2; source: E. coli BL21 (DE3) CodonPlus, purified
binding result [2]: binds

B9: STRIP1 (765–837) (domain or fragment, UniProt Q5VSL9 765-837, looked up)
chain: QAEECALRANIERFNARRYDRAHSNPDFLPVDNCLQSVLGQRVDLPEDFQMNYDLWLEREVFSKPISWEELLQ
Kd [11]: 1600 nM

B10: MST2 middle linker region (residues 308–435) (domain or fragment, human, UniProt Q13188 308-435, looked up)
chain: ELEEEEENSDEDELDSHTMVKTSVESVGTMRATSTMSEGAQTMIEHNSTMLESDLGTMVINSEDEEEEDGTMKRNATSPQVQRPSFMDYFDKQDFKNKSHENCNQNMHEPFPMSKNVFPDNWKVPQDG
notes: also called linker region of MST2; source: E. coli BL21 (DE3) CodonPlus, purified
binding result [12]: binds

B11: MST4 (recombinant) (enzyme)
chain: not shown
notes: MST4 (STK26), human; also called STK26; source: E. coli BL21 (DE3) CodonPlus, purified
binding result [4]: binds

B12
binding result [13]: binds
binding result [14]: binds
binding result [2]: binds
binding result [1]: binds
